Measured values taken from PMC5437177.

Target: T1, ABI5 (Arabidopsis thaliana) (UniProt Q9SJN0)
T1 sequence: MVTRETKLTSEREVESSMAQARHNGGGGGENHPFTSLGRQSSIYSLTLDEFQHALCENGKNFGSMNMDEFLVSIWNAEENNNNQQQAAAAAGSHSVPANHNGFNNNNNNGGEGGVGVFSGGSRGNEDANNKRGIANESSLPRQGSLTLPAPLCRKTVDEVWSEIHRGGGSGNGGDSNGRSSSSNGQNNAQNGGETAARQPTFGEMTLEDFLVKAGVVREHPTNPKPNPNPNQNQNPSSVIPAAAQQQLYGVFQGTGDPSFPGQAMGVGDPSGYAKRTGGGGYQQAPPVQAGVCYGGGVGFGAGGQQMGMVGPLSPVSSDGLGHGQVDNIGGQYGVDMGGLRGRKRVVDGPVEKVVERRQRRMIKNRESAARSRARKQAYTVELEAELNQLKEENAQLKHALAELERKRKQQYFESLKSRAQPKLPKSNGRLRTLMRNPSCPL
Test: EMSA
Details: 25 mM HEPES pH 8.0, 40 mM KCl, 5 mM MgCl2, 1 mM DTT, 1 mM EDTA, 8% glycerol, 1 ug/uL poly(dI-dC), 30 min room temperature; 5% native PAGE at 4 C

TCCTGAAATGGATCAACAATTGTCTAATTATGGTATAGTATCTGGCGAAATCAAAGACGATATCATCCACTTTTAATTAGTTTGACTATTAATACGAGGATTATCATTTGGATAAGGATTAACAAAGACAAAACACATACGTGTTTTGGTGTTGAGCTAAAATAAGATATTTTGGCTCTCGCTATAAA (double strand) [pCAT1 box1 mutation probe]
binding: binds more weakly

TCCTGAAATGGATCAACAATTGTCTAATTATGGTATAGTATCTGGCGAAATCAAAGACGATATCATCCACACGTAATTAGTTTGACTATTAATACGAGGATTATCATTTGGATAAGGATTAACAAAGACAAAACACATACGTGTTTTGGTGTTGAGCTAAAATAAGATATTTTGGCTCTCGCTATAAA (double strand) [pCAT1 wild type probe (-296/-108)]
binding: binds

TCCTGAAATGGATCAACAATTGTCTAATTATGGTATAGTATCTGGCGAAATCAAAGACGATATCATCCACACGTAATTAGTTTGACTATTAATACGAGGATTATCATTTGGATAAGGATTAACAAAGACAAAACACATTTTTGTTTTGGTGTTGAGCTAAAATAAGATATTTTGGCTCTCGCTATAAA (double strand) [pCAT1 box2 mutation probe]
binding: binds more weakly
